Results taken from article PMC9412862.

How the values were obtained:
[1] = biological target: NS4b full-length (residues 1-249), C-terminal six-histidine tag (dengue virus serotype 1); experiment: SEC
[2] = biological target: NS4b full-length (residues 1-249), C-terminal six-histidine tag (dengue virus serotype 1); experiment: BLI

NS4b full-length (residues 1-249), C-terminal six-histidine tag (natural protein)
stoichiometry N [1]: 2

helicase domain of DENV NS3 (NS3Hel), residues 178-619, C-terminal 6-histidine tag (domain or fragment)
Kd [2]: 508 nM
